# Test results reported in the DeepSol protein solubility set.
# Experiment: soluble on expression in E. coli; label from the status in PepcDB or PDB records
row,Sequence,soluble on expression in E. coli
1,KTNTEQFCSDCHMNDVVPEYRASAHYSNRSGVKAVCADCHVPHEFAPKMLRKLQASTEVYAHLTGKVDNKEKFEAHRLAMAEREWARMKANNSQECRNCHNFEDMDFTQQKTVAQQMHSRAETENKTCIDCHKGIAHNLPHMEKVQKSFIPDDMIKKTEKATEIK,not soluble
2,KVYSLRLNQKRNEKPSIFANENVRKALAYALDKKSLVDNILADGSKEIYGYIPEKFVYNPETNEDFRQEAGALVKTDAKKAKEYLDKAKAELNGDVAIELLSRDGDSDRKVAEFIQGQLQETLPGLTINVKTVPLNNAIELMRKGDYELSVGMWGPDYQDPMTFLESSVSGNRMNYSSPTFDQLIEEATTKYANEPETRWQTLIKAEKVLVEEDAALIPLYQEA,not soluble
3,KYHHLTLTQRAGSAVPTSNKVLDVKGQYLESGLSAPLIAEMRKHLKAGNQVMLFLNRRGFSPALMCHECGWIAECKRCDAYYTFHQYSNEIRCHHCGSQQPVIHQCQGC,not soluble
4,LADSIVPRQQWAAIEPRRQIKMNGRADEIFLWQTGPDTCSLMGLTADKCQGCLQDSSCTEQIVKALQDADFKEGNDDIKYNFLIDQDGVIYEGRGWGVVGQHTKGRDSHSIGVAVIGDFGKKEPSQALQDALSKLIICGQAAEELSSGARLRTTPAMSGQAFYDMLDRCDGLCLDD,soluble
5,LAEGKEIPCFALTSPEAGSDAGSIPDYGVVTKGMWEGEEVVGMRITWNKRYITLAPVATVLGLAFKLQDPDGLLGDKKDLGITCALIPTDLDGVKIGRRHFPLNVPFQNGPTQGNDLFVPLDYIIGG,not soluble
6,LAFVGLTIAIVVTETALLFRRYTALKPADLTRLINSENALVVDLSPSSDFEKGHIAGSRSVVESKFDPESNKLLLSAKQSPLVVVCRNGHISAAAAKRLKNAGFEKVYWLDGGIATWKMAEMPLIK,not soluble
7,LALMSAAKLPKSFVWGYATAAYQIEGSPDKDGREPSIWDTFCKAPGKIADGSSGDVATDSYNRWREDVQLLKSYGVKAYRFSLSWSRIIPKGGRSDPVNGAGIKHYRTLIEELVKEGITPFVTLYHWDLPQALDDRYGGWLNKEEAIQDFTNYAKLCFESFGDLVQNWITFNEPWVISVMGYGNGIFAPGHVSNTEPWIVSHHIILAHAHAVKLYRDEFKEKQGGQIGITLDSHWLIPYDDTDASKEATLRAMEFKLGRFANPIYKGEYPPRIKKILGDRLPEFTPEEIELVKGSSDFFGLNTYTTHLVQDGGSDELAGFVKTGHTRADGTQLGTQSDMGWLQTYGPGFRWLLNYLWKAYDKPVYVTENGFPVKGENDLPVEQAVDDTDRQAYYRDYTEALLQAVTEDGADVRGYFGWSLLDNFEWAEGYKVRFGVTHVDYETQKRTPKKSAEFLSRWFKEHIEE,soluble
8,LDNPFYYLENFRQVLGWIAQRYDDLLDASERRFITEFAGLPMPAQGLLVRMVMRKGVMFRASKLSYAEIGDPHQAVLPLLQQDWVDTSPPLGLSELFQLLRRDELSQCFKAHAVKGPERKHEWLERLQPLYETAQPLEQWHPLLPDAVFGLKIMPLCDRLRLLYFGNLYQEWSEFVLADLGIYRYEKVEFSADSRGINQRDDINVCLQLHACREALETCVELHALAERAIAIECSNPWLNMRRAKLLYRIGQHAERLQDWPLALSVYRQSNYPGARSRQIRVLERNAEYTEAMALVEQAGLAPESDAEVQHLSRGTPRLQRKLGLTAARRPAARVVSRLDVQVTPSPGTSVERLIRLHLEEQQGGEVHYVENTLINSLFGLLCWRAIFAPLPGAFFHPFHSAPSDLYSPDFYQRRAALFDECLLQLESNDYRVTIREHFQSKSGLQSPFVFWGALTPQLLEQALHCLPADHLRLWFRRLLQDIKANRTGMPDLIQFFPEQRGYRMIEVKGPGDRLQDNQLRWLDFCAEHGMPVEVCYVQWA,not soluble
9,LEPRHAMLLRCRLPGGVITTKQWQAIDKFAGENTIYGSIRLTNRQTFQFHGILKKNVKPVHQMLHSVGLDALATANDMNRNVLCTSNPYESQLHAEAYEWAKKISEHLLPRTRAYAEIWLDQEKVATTDEEPILGQTYLPRKFKTTVVIPPQNDIDLHANDMNFVAIAENGKLVGFNLLVGGGLSIEHGNKKTYARTASEFGYLPLEHTLAVAEAVVTTQRDWGNRTDRKNAKTKYTLERVGVETFKAEVERRAGIKFEPIRPYEFTGRGDRIGWVKGIDDNWHLTLFIENGRILDYPARPLKTGLLEIAKIHKGDFRITANQNLIIAGVPESEKAKIEKIAKESGLMNAVTPQRENSMACVSFPTCPLAMAEAERFLPSFIDNIDNLMAKHGVSDEHIVMRVTGCPNGCGRAMLAEVGLVGKAPGRYNLHLGGNRIGTRIPRMYKENITEPEILASLDELIGRWAKEREAGEGFGDFTVRAGIIRPVLDPARDLWD,soluble
10,LEQARTMSVDEMAANPEINRLMMARIEAAQDSLAAYEKVKYITLLAEPFTLEKGELTETMKLKRRVINEHYAEAIEKMYL,not soluble
11,LFDLGHPLLNRIADSFVKAAGVGALQAVSREAYFTVVDGAGFDSNNVGPPSEITGNKKHRFPNLRGESSKSLDALVKNTGKESLQWGLAAGLYSGITYGMTEVRGGAHDWRNSAVAGALTGAAMAMTTSERTSHEQVVQSALTGAAISTAANLLSSVF,not soluble
12,LFDRVLVAYDFSKWADRALEYAKFVVKKTGGELHIIHVSEDGDKTADLRVMEEVIGAEGIEVHVHIESGTPHKAILAKREEINATTIFMGSRGAGSVMTMILGSTSESVIRRSPVPVFVCKRGDDE,not soluble
13,LKVLTNKASVMLFMKGNKQEAKCGFSKQILEILNSTGVEYETFDILEDEEVRQGLKTFSNWPTYPQLYVRGDLVGGLDIVKELKDNGELLPILKGE,soluble
14,LLEQESLPATGELYEHAACGLLVTLPNGTIERANLTFCRWLGLEREAVIGRRFQDLLNLAGKVFLQTHWAPLLQTQGSIAEVKVELIHADGRSVPMMLNAIRREYPSGFLHEVAVFLAEE,not soluble
15,LMKLYSLSVFYKGEPKAVLLKAAYDVSSFSFFQRSSVQEFMTFTSQLIVERSAKGSRASVKEQEYLCHVYVRSDSLAGVVIADSEYPSRVAFTLLEKVLDEFSKQVDRIDWPVGSPATIHYTALDGHLSRYQNPREADPMSKVQAELDETKIILHNTMESLLERGEKLDDLVSKSEVLGTQSKAFYKTARKQNSCCAIM,soluble
16,LNNRKQMAQQKFAFYEKSLPNKKRSFFEMKYYNDVTTPKIYRLTDQEMKLFDKLEA,not soluble
17,LQEVGSTFNIEVSILKDQATIMIDTTGSSLFKRGYRVQKGGAPIKENMAAAILALSNWFPDKPLVDPTCGSGTFCIEAAMIGMNIAPGFNRSFAFEEWSWVDKDMVQQVRDDAEQEANYEIELDISGFDIDGRMIEIAKSNAEEAGLSDVITFKQMRLQDFRTDKVNGVVISNPPYGERLLDDKAVDILYNEMGQTFAPLKTWSKFILTSDELFELKYGQKADKKRKLYNGTLKVDLYQFYGERVKRHLI,not soluble
18,LQFAYKDPEKNWNRNSVKGLVASLINVKDNSTATALEVVAGERLYNVVVDTEVTAKKLLEKGELKRRYTIIPLNKISARCIAPETLRVAQNLVGPDNVHVALSLVDYKPELQKGMEFVFGTTFVCNNMDNAKKVAFDKRIMTRTVTLGGDVFDPHGTLSGG,soluble
19,LQQFLDALASSPEKIEFETTMAVIEDNYDFTPAAFTNGNTQNDANENNGSCKIFAFGLLNALDKEATLACFGRFYREDVLLHPENNDHQNIRNFMVTGWEGIQFETSALTAK,not soluble
20,LQTVCLKGTKHMKCFLAFTQTKTFHEASEDCISRGGTLSTPQTGSENDALYEYLRQSVGNEAEIWLGLNKRWSRYFWVDMTGTRIAYKNWEHSSDAQPDPSNWENCAVLSGAANGKWFGKRCRDQLPYICQFGI,soluble
21,LSGSIYVLGGGENLKVTMMDAALKYAEANIPVIPLHWICEDGSCSCKTRSDCDSKGKHSLYTGWYNNSTTDVEQIRKWWTNVNVNKNLVLSKVS,not soluble
22,LSYPNATESVYGLTRYSTNDEAIAGVNNESSITPAKFTVALNNVFETRVSTESSNGVIKISSLPQALAGADDTTAMTPLKTQQLAVKLIAQIAPSKNAATESEQGVIQLATVAQARQGTLREGYAISPYTFMNSTATEEYKGVIKLGTQSEVNSNNASVAVTGATLNGRGSTTSMRGVVKLTTTAGSQSGGDASSALAWNADVIHQRGGQTINGTLRINNTLTIASGGANITGTVNMTGGYIQGKRVVTQNEIDRTIPVGAIMMWAADSLPSDAWRFCHGGTVSASDCPLYASRIGTRYGGSSSNPGLPDMR,soluble
23,LTFSLNFATSSKDSYGTGWLIDWKGDENKPSNTDPFLIYLATNLHVVDALRNPQDYEPYNKDSNGQDYGNRDITHFFALGKYTDPGLLGVETKE,soluble
24,LVQGPSLIGIHANEREDIETKKFVNWYLNTKVQWEENSIKTPAEYVADKASYLLPFKNRLNNTNSYNEFVKTAVSQFADKNVTKFAEPADFLSNKVRD,not soluble
25,LYRKGGVYVVIGGAGYIGEAWSEYMIRRYQAQIVWIGRSQLNAAIQSKIDRLSALGPEPFYIAADAADKHSLQQAYEQVKKRHPHIHGIVHSAMVLFEQSLEKMKPEEFTAGLAAKIDVSIRMAQVFRQENVDFVLFFSSLVAHIKNVKQSHYASGCTFADAFAHQLSQSWA,not soluble
26,LYWGDGQVWFDLPDKVTTHDSQLVGNLTELLKSVEHSFVLISPYFIPTEAGTKALTNAAKRGVDITIVTNSLASNDVFAVHGWYAKYREDLLESGIKLWEVKSSAKLKSKWSLTGSSRASLHAKAMTIDDKTLFVGSMNWDPRSAALNTEMAVVIEQPEYVQAFLAKLPSQLKDNAYRLTLRDGDIVWTNTKTGEEYDSEPEAGVFRRLGAWFSGILPIEDQL,not soluble
27,MAAAALRSGWCRCPRRCLGSGIQFLSSHNLPHGSTYQMRRPGGELPLSKSYSSGNRKGFLSGLLDNVKQELAKNKEMKESIKKFRDEARRLEESDVLQEARRKYKTIESETVRTSEVLRKKLGELTGTVKESLHEVSKSDLGRKIKEGVEEAAKTAKQSAESVSKGGEKLGRTAAFRALSQGVESVKKEIDDSVLGQTGPYRRPQRLRKRTEFAGDKFKEEKVFEPNEEALGVVLHKDSKWYQQWKDFKENNVVFNRFFEMKMKYDESDNAFIRASRALTDKVTDLLGGLFSKTEMSEVLTEILRVDPAFDKDRFLKQCENDIIPNVLEAMISGELDILKDWCYEATYSQLAHPIQQAKALGLQFHSRILDIDNVDLAMGKMVEQGPVLIITFQAQLVMVVRNPKGEVVEGDPDKVLRMLYVWALCRDQDELNPYAAWRLLDISASSTEQIL,soluble
28,MAAAGQEKGYLTQTAAALDKSPSLSPQLAAPIRGRPKKCLVYPHAPKSSRLSRSVLRWLQGLDLSFFPRDINRDFSNGFLIAEIFCIYYPWELELSSFENGTSLKVKLDNWAQLEKFLARKKFKLPKELIHGTIHCKAGVPEILIEEVYTLLTHREIKSIQDDFVNFTDYSYQMRLPLVSRSTVSKSIKDNIRLSELLSNPNMLTNELKAEFLILLHMLQRKLGRKLNPEWFDVKPTVGEVTLNHLPAQASGRRYNLKVKRGRVVPVLPNIGSGGSSHREIHVKQAGQHSYYSAMKPIRNMDKKP,soluble
